Test results as given in US20120093811A1 (published 2012).
Changes are numbered by the printed parent chain.

T1: VEGF-D (recombinant human; source not given) (human, UniProt O43915 89-205, limits assumed)
T1 construct: also used here as target of IC50 values averaged over Source 1 and Source 2; also called vascular endothelial growth factor-D
T1 sequence: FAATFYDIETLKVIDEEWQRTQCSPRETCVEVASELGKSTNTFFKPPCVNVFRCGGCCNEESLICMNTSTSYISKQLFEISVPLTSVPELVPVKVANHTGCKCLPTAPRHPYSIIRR

B1: scFv clone AA16 (scFv)
scFv: QAQLVQSGAEVKQPGASVKVSCKASGYTFTGYNMYWVRQAPGQGLEWMGYIDPYNGDTTYNQKFKGRVTMTTDTSTSTAYMELRSLRSDDTAVYYCARTSYYGGMDYWGRGTLVTVASGGGASGGGGSGGGGSDIVMTQTPLSSPVTLGQPASISCRSSQSLVHSNGNTYLHWLQQRPGQPPRLLIYKVSNRFSGVPDRFSGSGAGTDFTLKISRVEAEDVGVYYCSQSTHVPRTFGQGTKLEIKR
B2: scFv clone AC75 (scFv)
scFv: B1 scFv with A2V, M81V
B3: scFv clone BF36 (scFv)
scFv: B1 scFv with A2V, K63R, E82K, T112A, K212R
B4: scFv clone CI67 (scFv)
scFv: B1 scFv with A2V, V68A, E82K, T230A
B5: scFv clone CJ17 (scFv)
scFv: B1 scFv with A2V, K23E, E82K
B6: scFv clone CK61 (scFv)
scFv: B1 scFv with A2V, E10K, E82K
B7: scFv clone CW16 (scFv)
scFv: B1 scFv with A2V, D89G, V146A
B8: scFv clone CX03 (scFv)
scFv: B1 scFv with A2V, K19T, D198G
B9: scFv clone CZ13 (scFv)
scFv: B1 scFv with A2V, V5A, E10K, V20A
B10: scFv clone CZ24 (scFv)
scFv: B1 scFv with A2V, E10K, S17N, V20A
B11: scFv clone CZ77 (scFv)
scFv: B1 scFv with A2V, E10K, V20A, K65R
B12: scFv clone D69 (scFv)
scFv: B1 scFv with A2V, Y95H, D198G
B13: scFv clone DA74 (scFv)
scFv: B1 scFv with A2V, V5A, E10K, V20A, F193S
B14: scFv clone DB29 (scFv)
scFv: B1 scFv with A2V, E10K, V20A, S144G
B15: scFv clone DC56 (scFv)
scFv: B1 scFv with A2V, E10K, K12R, V20A
B16: scFv clone DC64 (scFv)
scFv: B1 scFv with A2V, E10K, V18M, V20A
B17: scFv clone DD17 (scFv)
scFv: B1 scFv with A2V, E10K, S17G, V20A
B18: scFv clone DD25 (scFv)
scFv: B1 scFv with A2V, E10K, V20A, M48V
B19: scFv clone DD76 (scFv)
scFv: B1 scFv with A2V, E10K, V20A, S75N
B20: scFv clone DE03 (scFv)
scFv: B1 scFv with A2V, E10K, V20A, S25G
B21: scFv clone G11 (scFv)
scFv: B1 scFv with A2V, D198G
B22: scFv clone G37 (scFv)
scFv: B1 scFv with A2V, Q3R, S100G
B23: scFv clone G38 (scFv)
scFv: B1 scFv with A2V, A40V, V114A

Target: T1, VEGF-D (recombinant human; source not …)
Assay: SPR (BIAcore) off-rate ranking of scFv clones
Protocol: Screening based on scFv binding properties involved surface plasmon resonance (SPR) measurements with a BIAcore™ biosensor. scFv variants were expressed in 200 μL E. coli cultures and the supernatants used to generate crude off-rate only kinetics, which were assessed “relative” to 1A, or other variants.

Binder | koff
B1 | 0.00795 s⁻¹
B2 | 0.00637 s⁻¹
B3 | 0.00362 s⁻¹
B4 | 0.00379 s⁻¹
B5 | 0.00291 s⁻¹
B6 | 0.00522 s⁻¹
B7 | 0.00726 s⁻¹
B8 | 0.00739 s⁻¹
B9 | 0.00826 s⁻¹
B10 | 0.00759 s⁻¹
B11 | 0.00408 s⁻¹
B12 | 0.00341 s⁻¹
B13 | 0.00424 s⁻¹
B14 | 0.00575 s⁻¹
B15 | 0.00723 s⁻¹
B16 | 0.00738 s⁻¹
B17 | 0.0091 s⁻¹
B18 | 0.00373 s⁻¹
B19 | 0.00637 s⁻¹
B20 | 0.00798 s⁻¹
B21 | 0.00464 s⁻¹
B22 | 0.00586 s⁻¹
B23 | 0.00772 s⁻¹
